This note sets out measurements from US20140378382A1.

In experiment [1] the target is PTHR-1 (species and cells not stated for the assay) (Homo sapiens (Human)) (UniProt Q03431). The experiment is described as follows: cell-based or functional assay.
Experiment [2] concerns the target parathyroid hormone receptor-2 (PTHR-2). Briefly: cell-based or functional assay.

PTHR-1 (species and cells not stated for the assay) (Homo sapiens (Human)), sequence (Q03431 27-593 limits assumed, form in doubt): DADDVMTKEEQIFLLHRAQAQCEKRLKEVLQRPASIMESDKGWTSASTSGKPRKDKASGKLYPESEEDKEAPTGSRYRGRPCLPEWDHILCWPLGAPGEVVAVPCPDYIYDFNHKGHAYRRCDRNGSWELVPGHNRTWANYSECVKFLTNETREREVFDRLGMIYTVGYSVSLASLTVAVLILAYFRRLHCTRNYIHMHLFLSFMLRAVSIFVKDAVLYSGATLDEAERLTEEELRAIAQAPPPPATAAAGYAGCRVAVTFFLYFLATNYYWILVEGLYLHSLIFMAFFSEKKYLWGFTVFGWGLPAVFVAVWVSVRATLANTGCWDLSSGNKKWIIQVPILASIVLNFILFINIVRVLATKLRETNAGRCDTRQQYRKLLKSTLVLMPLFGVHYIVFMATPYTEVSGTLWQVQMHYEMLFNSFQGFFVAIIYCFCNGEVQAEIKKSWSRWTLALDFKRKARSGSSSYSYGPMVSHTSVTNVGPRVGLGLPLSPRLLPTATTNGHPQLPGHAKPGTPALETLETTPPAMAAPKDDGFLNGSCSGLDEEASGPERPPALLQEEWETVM

The substance “hPTHrP(1-36) (from UniProt P12272 37-72) (peptide)” came in with a cAMP response PTH1R/PTH2R in experiment [1] of 27. In experiment [2], this substance registered a cAMP response PTH2R/PTH1R of 0.04.

As for “hTIP(1-39) (from UniProt Q96A98 62-100) (peptide)”, the cAMP response PTH1R/PTH2R in experiment [1] worked out at 0.01. The same substance had a cAMP response PTH2R/PTH1R in experiment [2] of 165.
